{"source": "the RNAGym collection of RNA variant scans (doi:10.1021/acssynbio.7b00057)", "parents": {"B1": {"name": "Pistol ribozyme (parent)", "chain": "GGGUCGUUGUUCCAUAAUCGCGUGGAUAUGGCACGCAAGUUUCUACCGGGCACCGUAAAUGUCCGACUGGAGCCGUUCGGGCGGCUAUAAACAGACCUCAGGCCCGAAGCGUGGCGGCACCUGCCGCCGGUGGUAAAAAAGAUCGGAAGAGCACACGUCU"}}}
{"variants_of": "B1", "assay": "aptazyme ON/OFF ratio, guanine; higher = stronger switching; co-transcriptional cleavage with and without guanine"}
{"variant": "U7G G9A U10A U11C C12G C13A", "aptazyme ON/OFF ratio": 1.1}
{"variant": "U7G G9A U11C C12G C13G", "aptazyme ON/OFF ratio": 1.07}
{"variant": "U7G G9A U11C C12G C13U", "aptazyme ON/OFF ratio": 1.13}
{"variant": "U7G G9A U11C C12G C13A", "aptazyme ON/OFF ratio": 1.11}
{"variant": "U7G G9A C12A C13G", "aptazyme ON/OFF ratio": 1.15}
{"variant": "U7G G9A C12A C13A", "aptazyme ON/OFF ratio": 1.09}
{"variant": "U7G G9A C12A C13U", "aptazyme ON/OFF ratio": 1.13}
{"variant": "U7G G9A U10C U11A C12A C13G", "aptazyme ON/OFF ratio": 1.09}
{"variant": "U7G G9A U10C U11A C12A C13A", "aptazyme ON/OFF ratio": 1.11}
{"variant": "U7G G9A U10C U11A C12A C13U", "aptazyme ON/OFF ratio": 1.09}
{"variant": "U7G G9A U11A C12G C13U", "aptazyme ON/OFF ratio": 1.12}
{"variant": "U7G G9A U11A C12G C13A", "aptazyme ON/OFF ratio": 1.08}
{"variant": "U7G G9A U11A C12G C13G", "aptazyme ON/OFF ratio": 1.13}
{"variant": "U7G G9A U10G U11G", "aptazyme ON/OFF ratio": 1.09}
{"variant": "U7G G9A U10G U11A", "aptazyme ON/OFF ratio": 1.05}
{"variant": "U7G G9A U10G U11C", "aptazyme ON/OFF ratio": 1.04}
{"variant": "U7G G9A U10G U11A C12A C13G", "aptazyme ON/OFF ratio": 1.05}
{"variant": "U7G G9A U10G U11A C12A C13U", "aptazyme ON/OFF ratio": 1.09}
{"variant": "U7G G9A U10G U11A C12A C13A", "aptazyme ON/OFF ratio": 1.06}
{"variant": "U7G G9C C12U", "aptazyme ON/OFF ratio": 1.79}
{"variant": "U7G G9C C12A", "aptazyme ON/OFF ratio": 1.99}
{"variant": "U7G G9C C12G", "aptazyme ON/OFF ratio": 1.91}
{"variant": "U7G G9C U10A U11A C12A", "aptazyme ON/OFF ratio": 1.46}
{"variant": "U7G G9C U10A U11A C12G", "aptazyme ON/OFF ratio": 1.7}
{"variant": "U7G G9C U10A U11A C12U", "aptazyme ON/OFF ratio": 1.65}
{"variant": "U7G G9C C12A C13A", "aptazyme ON/OFF ratio": 1.42}
{"variant": "U7G G9C C12A C13G", "aptazyme ON/OFF ratio": 1.33}
{"variant": "U7G G9C C12A C13U", "aptazyme ON/OFF ratio": 1.34}
{"variant": "U7G G9A U10A U11G C12A C13U", "aptazyme ON/OFF ratio": 1.12}
{"variant": "U7G G9A U10A U11G C12A C13G", "aptazyme ON/OFF ratio": 1.08}
{"variant": "U7G G9A U10A U11G C12A C13A", "aptazyme ON/OFF ratio": 1.05}
{"variant": "U7G G9A U10G U11G C13U", "aptazyme ON/OFF ratio": 1.14}
{"variant": "U7G G9A U10G U11G C13A", "aptazyme ON/OFF ratio": 1.05}
{"variant": "U7G G9A U10G U11G C13G", "aptazyme ON/OFF ratio": 1.09}
{"variant": "U7G G9A U10C U11C C12A C13A", "aptazyme ON/OFF ratio": 1.11}
{"variant": "U7G G9A U10C U11C C12A C13U", "aptazyme ON/OFF ratio": 1.12}
{"variant": "U7G G9A U10C U11C C12A C13G", "aptazyme ON/OFF ratio": 1.19}
{"variant": "U7G G9C U10A U11A C13G", "aptazyme ON/OFF ratio": 1.11}
{"variant": "U7G G9C U10A U11A C13U", "aptazyme ON/OFF ratio": 1.45}
{"variant": "U7G G9C U10A U11A C13A", "aptazyme ON/OFF ratio": 1.31}
{"variant": "U7G G9C U10A U11G C12G C13U", "aptazyme ON/OFF ratio": 1.12}
{"variant": "U7G G9C U10A U11G C12G C13G", "aptazyme ON/OFF ratio": 1.08}
{"variant": "U7G G9C U10A U11G C12G C13A", "aptazyme ON/OFF ratio": 1.1}
{"variant": "U7G G9C U10A C12A C13A", "aptazyme ON/OFF ratio": 1.2}
{"variant": "U7G G9C U10A C12A C13U", "aptazyme ON/OFF ratio": 1.2}
{"variant": "U7G G9C U10A C12A C13G", "aptazyme ON/OFF ratio": 1.09}
{"variant": "U7G G9A U10A U11C C12A C13A", "aptazyme ON/OFF ratio": 1.13}
{"variant": "U7G G9A U10A U11C C12A C13U", "aptazyme ON/OFF ratio": 1.21}
{"variant": "U7G G9A U10A U11C C12A C13G", "aptazyme ON/OFF ratio": 1.1}
{"variant": "U7G G9A U10G U11A C12U C13A", "aptazyme ON/OFF ratio": 1.1}
{"variant": "U7G G9A U10G U11A C12U C13U", "aptazyme ON/OFF ratio": 1.07}
{"variant": "U7G G9A U10G U11A C12U C13G", "aptazyme ON/OFF ratio": 1.05}
{"variant": "U7G G9A U10G U11A C12A", "aptazyme ON/OFF ratio": 1.09}
{"variant": "U7G G9A U10G U11A C12U", "aptazyme ON/OFF ratio": 1.07}
{"variant": "U7G G9A U10G U11A C12G", "aptazyme ON/OFF ratio": 1.07}
{"variant": "U7G G9A U10A U11A C12G C13U", "aptazyme ON/OFF ratio": 1.12}
{"variant": "U7G G9A U10A U11A C12G C13A", "aptazyme ON/OFF ratio": 1.1}
{"variant": "U7G G9A U10A U11A C12G C13G", "aptazyme ON/OFF ratio": 1.19}
{"variant": "U7G G9A U10C U11G C12U C13U", "aptazyme ON/OFF ratio": 1.14}
{"variant": "U7G G9A U10C U11G C12U C13G", "aptazyme ON/OFF ratio": 1.11}
{"variant": "U7G G9A U10C U11G C12U C13A", "aptazyme ON/OFF ratio": 1.11}
{"variant": "U7G G9A U10G U11G C12A C13A", "aptazyme ON/OFF ratio": 1.03}
{"variant": "U7G G9A U10G U11G C12A C13U", "aptazyme ON/OFF ratio": 1.1}
{"variant": "U7G G9A U10G U11G C12A C13G", "aptazyme ON/OFF ratio": 1.09}
{"variant": "U7G G9A U11A C12U C13U", "aptazyme ON/OFF ratio": 1.19}
{"variant": "U7G G9A U11A C12U C13A", "aptazyme ON/OFF ratio": 1.16}
{"variant": "U7G G9A U11A C12U C13G", "aptazyme ON/OFF ratio": 1.17}
{"variant": "U7G G9A U10G U11C C13G", "aptazyme ON/OFF ratio": 1.11}
{"variant": "U7G G9A U10G U11C C13A", "aptazyme ON/OFF ratio": 1.08}
{"variant": "U7G G9A U10G U11C C13U", "aptazyme ON/OFF ratio": 1.08}
{"variant": "U7G G9C U10A U11A C12G C13U", "aptazyme ON/OFF ratio": 1.27}
{"variant": "U7G G9C U10A U11A C12G C13A", "aptazyme ON/OFF ratio": 1.14}
{"variant": "U7G G9C U10A U11A C12G C13G", "aptazyme ON/OFF ratio": 1.15}
{"variant": "U7G G9A U10C U11C C13A", "aptazyme ON/OFF ratio": 1.04}
{"variant": "U7G G9A U10C U11C C13G", "aptazyme ON/OFF ratio": 1.03}
{"variant": "U7G G9A U10C U11C C13U", "aptazyme ON/OFF ratio": 1.02}
{"variant": "U7G G9A U11C C12A C13A", "aptazyme ON/OFF ratio": 1.1}
{"variant": "U7G G9A U11C C12A C13U", "aptazyme ON/OFF ratio": 1.26}
{"variant": "U7G G9A U11C C12A C13G", "aptazyme ON/OFF ratio": 1.14}
{"variant": "U7G G9A C12G C13A", "aptazyme ON/OFF ratio": 1.13}
{"variant": "U7G G9A C12G C13U", "aptazyme ON/OFF ratio": 1.18}
{"variant": "U7G G9A C12G C13G", "aptazyme ON/OFF ratio": 1.1}
{"variant": "U7G G9A U10C U11A C12G C13U", "aptazyme ON/OFF ratio": 1.12}
{"variant": "U7G G9A U10C U11A C12G C13G", "aptazyme ON/OFF ratio": 1.07}
